The values that follow come from patent US20110086770A1 (ANAPHORE, published 2011).

Assay [1] has as its target T1, recombinant human IL-23R/Fc chimera (R&D Systems) (human, UniProt Q5VWK5 24-353).
T1 construct: bought; also called human IL-23R/Fc fusion protein; rhIL23RFc
T1 sequence (looked up): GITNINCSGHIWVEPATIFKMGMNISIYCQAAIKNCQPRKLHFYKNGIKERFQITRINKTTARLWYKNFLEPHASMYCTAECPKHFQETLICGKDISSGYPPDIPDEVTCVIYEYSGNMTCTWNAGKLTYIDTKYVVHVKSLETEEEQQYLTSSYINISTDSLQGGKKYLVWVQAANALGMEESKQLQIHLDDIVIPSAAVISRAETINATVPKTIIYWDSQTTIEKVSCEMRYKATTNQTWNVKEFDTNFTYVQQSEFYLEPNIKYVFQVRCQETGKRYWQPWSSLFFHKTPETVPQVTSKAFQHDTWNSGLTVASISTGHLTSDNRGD
Nature of the assay: SPR (Biacore), captured IL-23R/Fc, ATRIMER. The method, then:
A Biacore 3000 biosensor (GE Healthcare) was used to evaluate the interaction of human IL-23R and receptor binders. Immobilization of an anti-human IgG Fc antibody (GE Heathcare) to the CM5 chip (Biacore) was performed using standard amine coupling chemistry, and this modified surface was used to capture a recombinant human IL-23R/Fc fusion protein (R&D Systems). A low-density receptor surface, less than 200 RU, was used for all of the analyses. ATRIMER™ polypeptide complex dilutions (1-500 nM) were injected over the IL-23R surface at 30 μl/min and kinetic constants were derived from the sensorgram data using the Biaevaluation software (version 3.1, GE Healthcare). Data collection was 3 minutes for the association and 5 minutes for dissociation. The anti-human IgG surface was regenerated with a 30 s pulse of 3M magnesium chloride. All sensorgrams were double-referenced against an activated and blocked flow-cell as well as buffer injections.
In general terms: Surface plasmon resonance follows binding to a sensor surface in real time, without labels.

In assay [2] the target is T1, recombinant human IL-23R/Fc chimera …. Nature of the assay: competition ELISA against IL-23. The method, then: Assays were performed generally as follows. Individual wells in Immulon HB2 plates were incubated overnight at 4° C. with 100 μL PBS containing 100 ng of an anti-human IgG Fc (R&D MAB 110 clone 97924). Plates were washed five times with PBS/0.05% Tween 20, and wells were incubated for 1.5 h at RT with 100 μL each of PBS containing 50 ng of recombinant human IL-23R/Fc. […] Competitor was included at a final concentration of 1 μg/mL. After incubation, plates were washed as described and wells were incubated for 40 min at RT with 100 μL each of PBS containing a 1:5000 dilution of streptavidin-HRP conjugate (Pierce catalog no. 21130). After washing, wells were incubated with 100 μL each of TMB (BioFX Lab catalog no. TMBH-1000-0) for up to 30 min at RT. Reactions were stopped with an equal volume of 0.2 M sulfuric acid.
A number of ATRIMER™ polypeptide complexes were tested in competition ELISA more extensively to determine IC50 values.
(ELISA stands for enzyme-linked immunosorbent assay.)

B1: A9E ATRIMER (designed binder)
chain: EPPTQKPKKIVNAKKDVVNTKMFEELKSRLDTLAQEVALLKEQQALQTVCLKGTKVHMKCFLAFTQTKTFHEASEDCISRGGTLSTPQTGSENDALYEYLRQSVGNEAEIWLGLNGSALTNTWVDMTGARIAYKNWETEITAQPDGGLGYWGENCAVLSGAANGKWFDKRCRDQLPYICQFGIV
As a reminder, the Kd is the constant that tells how readily two partners part at equilibrium. By koff is commonly meant the first-order rate constant of dissociation. A word on the kon: it is the second-order rate constant of association. The term IC50 denotes the concentration needed to halve the response being measured. As for B1, in assay [1], the Ka was 5.21e+08 M⁻¹, the Kd was 1.92 nM, the koff was found to be 0.00033 s⁻¹ and the kon was found to be 172000 M⁻¹ s⁻¹. Besides, in assay [2], the IC50 is 2.6 nM.

B2: 4G8 ATRIMER (designed binder)
chain: EPPTQKPKKIVNAKKDVVNTKMFEELKSRLDTLAQEVALLKEQQALQTVCLKGTKVHMKCFLAFTQTKTFHEASEDCISRGGTLSTPQTGSENDALYEYLRQSVGNEAEIWLGLNGSRRSGVWVDMTGARIAYKNWETEITAQPDGGFGVFGENCAVLSGAANGKWFDKRCRDQLPYICQFGIV
modifications: Forms a homotrimer through the tetranectin coiled coil; one protomer is given.
notes: made in E. coli; also called 001-69.4G8; ATRIMER complex 4G8
For B2, in assay [1], the Ka was 1.35e+08 M⁻¹, the Kd was found to be 7.42 nM, the koff turned out to be 0.000805 s⁻¹ and the kon was 109000 M⁻¹ s⁻¹. Besides, the IC50 in assay [2] came to 1.4 nM.
